From patent US20250320297A1

Biological target: human PDL1 stably expressed on CHO cells (human) (UniProt Q9NZQ7)
Sequence (Q9NZQ7 19-290 limits assumed): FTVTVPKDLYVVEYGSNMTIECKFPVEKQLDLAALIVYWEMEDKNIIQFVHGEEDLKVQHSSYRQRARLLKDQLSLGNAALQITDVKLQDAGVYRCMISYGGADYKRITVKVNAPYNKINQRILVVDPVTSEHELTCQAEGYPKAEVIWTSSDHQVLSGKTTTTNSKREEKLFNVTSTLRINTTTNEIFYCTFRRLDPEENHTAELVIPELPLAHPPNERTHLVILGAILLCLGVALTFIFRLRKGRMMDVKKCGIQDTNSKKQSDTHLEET

Question: For “Reference Ab 1 (analog of MPDL3280A) (antibody)”, which EC50; NFAT luciferase reporter (RLU), CHO cells with human PDL1 co-incubated with Jurkat cells with human PD1 and NFAT reporter, blocking of PDL1/PD1 is on record?
Answer: 0.0532 nM
